Results on one substance are retold here after US20110091460A1.

In the assay the target is interleukin 13 receptor (IL13R) (human). In words: cell-based or functional assay.

In turn, DTIL13 (ligand) yielded an IC50, inhibition of Calu-3 cell growth (3H-thymidine proliferation assay, 72 h) of 3.1 nM; an IC50, inhibition of HT-29 cell growth (3H-thymidine proliferation assay, 72 h) of 95 nM; an IC50, inhibition of PC-3 cell growth (3H-leucine proliferation assay, 72 h) of 0.038 nM; an IC50, killing of DU-145 cells (3H-thymidine proliferation assay, 72 h) above 100 nM. For the same substance, the IC50, killing of U87 MG cells (3H-thymidine proliferation assay, 72 h) is 10 nM and the IC50, killing of U118 cells (3H-thymidine proliferation assay, 72 h) is 2 nM.
